{
  "source": "patent US11407811B2",
  "about": "“Fusion protein, preparation method therefor and use thereof” (JIANGSU RONGTAI BIOTECH CO., LTD., priority 2017, dated 2022)",
  "key": {"tampon granuloma in rat": {"system": "tampon granuloma in rat", "type": "in vivo", "procedure": "40 parts of degreasing cotton, 30 mg for each part, were accurately weighed with an analytical balance and kneaded into balls having substantially the same shape and size, which were autoclaved at […] for 30 min and dried at 50° C. for further use.\n40 male SD rats were randomly divided into 4 groups with 10 rats for each group. […] Rats were anesthetized with sodium pentobarbital (40 mg/kg) via intraperitoneal injection before administration. The abdominal coat was cut off, and the skin of middle of the lower abdomen was cut under sterile conditions. The incision was about 1 cm long and the subcutaneous tissue was expanded with a vascular clamp. A sterile dry tampon was subcutaneously implanted into one side of the groin, the incision was sutured, and an appropriate amount of amoxicillin was spread at the incision to prevent infection. After the surgery was finished, the groups were administered once by injection from the day of surgery (EDSM needed to be administered twice a day). The rats were sacrificed by cervical dislocation at the 24th hour after administration, the inguinal skin was cut, the tampon was taken out together with the surrounding granulation tissue and the surrounding tissue was removed. After drying for additional 48 h in an oven at 60° C., the weight was accurately weighed. The granuloma weight was calculated: granuloma weight (mg/100 g body weight)=net weight of granulation (mg)/rat body weight (100 g)."}, "mouse spleen lymphocytes": {"system": "mouse spleen lymphocytes", "test": "Proliferation of mouse spleen lymphocytes (ConA, MTT)", "type": "cell-based", "conditions": "for A570 nm/A630 nm / PI (%): with ConA 5 μg/mL", "procedure": "Tris-NH4Cl was used to break the red blood cells, which were allowed to stand in an ice water bath for 4 min and centrifuged (1000 rpm, 5 min), the supernatant was discarded, and the cells were washed twice with sterile PBS.\nThe cells were statically cultured in a cell incubator at 37° C. for 48 h. After the completion of the culture, 20 μL of MTT was added to each well, and the culture was continued for 4 h. Finally, all the solutions in each well were discarded, 100 μL of DMSO was added to each well, and the mixture was shaken and detected by a microplate reader for OD value at 570 nm. 5 parallels were preformed for per well."}, "[1]": {"system": "xylene-induced ear swelling in mice", "test": "Xylene-induced ear swelling in mice", "type": "in vivo", "conditions": "for Swelling degree / PI: injection; for Swelling degree: 2 h after xylene, mice; for PI: ear swelling vs control", "procedure": "80 Kunming mice were divided into 8 groups with 10 mice for each group and numbered. A physiological saline group was used as a blank control group, an aspirin group (200 mg/kg) was used as a positive control group, and fusion protein I, protein II, protein III, protein IV and protein V at high, medium and low doses (128, 32, 8 mg/kg) were used as experimental groups. Mice were administered once by injection, while EDSM needed to be administered twice a day for 5 consecutive days. The blank control group was given an equal volume of physiological saline. After the fifth day, 0.05 mL of xylene was applied to both sides of the right ears of the mice to induce inflammation, and the left ears were not applied and were normal ears. After 2 h, the mice were sacrificed by dislocation, and the ears were cut along the auricle. Ear pieces were taken with a puncher and weighed, and the swelling degree and swelling rate were calculated. Swelling degree=right ear piece weight-left ear piece weight, swelling rate=(swelling degree/left ear piece weight)×100%."}, "[2]": {"system": "human umbilical vein endothelial cells (HUVEC)", "test": "Three-dimensional transwell assay, migration of HUVEC", "type": "cell-based", "procedure": "Human umbilical vein endothelial cells (HUVECs) were cultured with endothelial cell culture fluid containing 5% fetal bovine serum and 1×ECGS in a 5% CO2 incubator at 37° C., to a confluence of 90% or more, and then inhibitory effects of fusion protein I, protein II, protein III, protein IV, and protein V on migration of endothelial cells were detected by transwell assay, in which only endothelial cells HUVEC of passage 2 to 8 were used, and the specific operation was as follows.\n(1) 10 mg/mL Matrigel was diluted with a DMEM medium at a ratio of 1:4, coated on a transwell chamber membrane, and air-dried at room temperature.\n(2) HUVEC cells cultured to logarithmic phase were digested with 0.2% EDTA, collected, washed twice with PBS, followed by resuspended in an endothelial cell culture liquid containing 0.1% BSA, counted under a microscope, and the cell concentration was adjusted to 1×10^5 cells/mL;\n(3) Test solutions for each group were formulated and diluted to 100 μL with a cell culture liquid containing 0.1% BSA;\nGroups were divided as follows:\nBlank control group: a cell culture liquid containing no drug;\nEndostar group: 5 mg/mL Endostar solution diluted to a predetermined concentration with a cell culture liquid containing no drug; […]\n(4) The cells were inoculated into a transwell chamber at 100 μL per well, and test solutions for each group were added to the chamber. To a 24-well plate, 0.6 mL of endothelial cell culture liquid containing 5% fetal bovine serum and 1×ECGS was added to stimulate cell migration, and incubated at 5% CO2 for 24 h at 37° C.\n(5) The culture liquid in the well was discarded. The cells were fixed with 90% alcohol at room temperature for 30 min, stained with 0.1% crystal violet for 10 min at room temperature, and rinsed with water. Un-migrated cells in the upper layer were gently wiped off by a cotton swab. The observation was carried out under microscope and four fields of view were selected for taking photos and counting. The migration inhibition (MI) was calculated according to the formula: […]\nwhere Ntest is the migration cell number in the test group, and Ncontrol is the migration cell number in the blank control group.\nThe test was repeated 3 times independently. The results obtained from the test were calculated as mean±SD, and statistical t-test was performed. P<0.05 was considered as a significant difference, and P<0.01 was considered as an extremely significant difference."}},
  "note": "Marks after values point to notes of the source that are not given here.",
  "data": [
    {"molecule": "Protein II: IgG2-Fc linked to antiangiogenesis polypeptide EDSM-Y via a flexible linker; SEQ ID NO: 17 (protein) ERKCCVECPPCPAPPVAGPSVFLFPPKPKDTLMISRTPEVTCVVVDVSHEDPEVQFNWYVDGVEVHNAKTKPREEQFNSTFRVVSVLTVVHQDWLNGKEYKCKVSNKGLPAPIEKTISKTKGQPREPQVYTLPPSREEMTKNQVSLTCLVKGFYPSDISVEWESNGQPENNYKTTPPMLDSDGSFFLYSKLTVDKSRWQQGNVFSCSVMHEALHNHYTQKSLSLSPGKGGGGSGGGGSGGGGSFQPVLHLVALNSPLSGGMRGIRGADFQCFQQARAVGLAGTFRAGGGGRGD", "values": [
      {"measurement": "inhibition of tampon granuloma in rat", "setting": "tampon granuloma in rat; effective dose of 64 mg/kg, compared with the blank model group", "value": "could significantly inhibit tampon granuloma in rat"},
      {"measurement": "GranuLoma (mg)/Weight (100 g)", "setting": "tampon granuloma in rat; rat, 64 mg/kg, injection", "value": "0.23 ± 0.05", "unit": "mg/100 g"},
      {"measurement": "PI (%)", "setting": "tampon granuloma in rat; rat, 64 mg/kg, injection", "value": 55.77, "unit": "%"},
      {"measurement": "Weight gain", "setting": "tampon granuloma in rat; rat, in vivo, 64 mg/kg", "value": "32.16 ± 10.13", "unit": "g"},
      {"measurement": "inhibition of mouse spleen lymphocytes", "setting": "mouse spleen lymphocytes; compared with the ConA group", "value": "could inhibit mouse spleen lymphocytes to some extent"},
      {"measurement": "A570 nm/A630 nm", "setting": "mouse spleen lymphocytes; dose 8 μg/mL", "value": "0.5514 ± 0.0187"},
      {"measurement": "PI (%)", "setting": "mouse spleen lymphocytes; dose 8 μg/mL", "value": 6.84, "unit": "%"},
      {"measurement": "A570 nm/A630 nm", "setting": "mouse spleen lymphocytes; dose 32 μg/mL", "value": "0.4637 ± 0.0155"},
      {"measurement": "PI (%)", "setting": "mouse spleen lymphocytes; dose 32 μg/mL", "value": 21.66, "unit": "%"},
      {"measurement": "A570 nm/A630 nm", "setting": "mouse spleen lymphocytes; dose 128 μg/mL", "value": "0.3825 ± 0.0103"},
      {"measurement": "PI (%)", "setting": "mouse spleen lymphocytes; dose 128 μg/mL", "value": 35.38, "unit": "%"},
      {"measurement": "Swelling degree", "setting": "[1]; 8 mg/kg", "value": "6.21 ± 0.23", "unit": "mg"},
      {"measurement": "PI", "setting": "[1]; 8 mg/kg", "value": 6.62, "unit": "%"},
      {"measurement": "Swelling degree", "setting": "[1]; 32 mg/kg", "value": "5.18 ± 0.89", "unit": "mg"},
      {"measurement": "PI", "setting": "[1]; 32 mg/kg", "value": 22.11, "unit": "%"},
      {"measurement": "Swelling degree", "setting": "[1]; 128 mg/kg", "value": "3.87 ± 0.45", "unit": "mg"},
      {"measurement": "PI", "setting": "[1]; 128 mg/kg", "value": 41.80, "unit": "%"},
      {"measurement": "inhibition of xylene-induced ear swelling", "setting": "[1]; high doses", "value": "could significantly inhibit xylene-induced ear swelling"},
      {"measurement": "MI (%)", "setting": "[2]; dose 0.25 μg/mL", "value": 16.12, "unit": "%"},
      {"measurement": "Migration cell number", "setting": "[2]; dose 0.25 μg/mL", "value": "2108.0 ± 75.27"},
      {"measurement": "MI (%)", "setting": "[2]; dose 0.5 μg/mL", "value": 52.11, "unit": "%"},
      {"measurement": "Migration cell number", "setting": "[2]; dose 0.5 μg/mL", "value": "1203.5 ± 220.14**^"},
      {"measurement": "MI (%)", "setting": "[2]; dose 1 μg/mL", "value": 73.06, "unit": "%"},
      {"measurement": "Migration cell number", "setting": "[2]; dose 1 μg/mL", "value": "677.0 ± 24.72**^"},
      {"measurement": "MI (%)", "setting": "[2]; dose 2 μg/mL", "value": 77.34, "unit": "%"},
      {"measurement": "Migration cell number", "setting": "[2]; dose 2 μg/mL", "value": "569.5 ± 270.29"},
      {"measurement": "MI (%)", "setting": "[2]; dose 4 μg/mL", "value": 65.86, "unit": "%"},
      {"measurement": "Migration cell number", "setting": "[2]; dose 4 μg/mL", "value": "858.0 ± 145.87"},
      {"measurement": "MI (%)", "setting": "[2]; dose 8 μg/mL", "value": 29.88, "unit": "%"},
      {"measurement": "Migration cell number", "setting": "[2]; dose 8 μg/mL", "value": "1762.0 ± 183.97"}
    ]}
  ]
}
